# Tests used:
# [1] = target: TAT-Troponin; assay: BLI
# [2] = target: TAT-Troponin; assay: BLI; after the dissociation phase the sensors (1000 nM analyte samples) were moved into binding buffer with 10 mM EDTA, nm shift measured for 300 s; 25°C
substance,measurement,setting,value
Troponin inhibitory peptide-myoglobin,kon,[1],3700 M⁻¹ s⁻¹
same,koff (EDTA),[2],0.018 s⁻¹
